From US20250101135A1 (Hoffmann-La Roche, published 2025)

Assays:
[1] = target: T1, monomeric human CD19 antigen Fc(kih) fusion molecule (human, UniProt P0DOX5 223-449 = IgG part); assay: SPR ProteOn XPR36, IgG from HEK supernatant captured via anti-human Fab, monomeric CD19-Fc analyte, 1:1 Langmuir
T1 construct: also called monomeric CD19-Fc; human CD19-Fc(kih)

[2] = target: T1, monomeric human CD19 antigen Fc(kih) …; assay: SPR ProteOn XPR36, Fab from bacterial supernatant captured via anti-human Fab, monomeric CD19-Fc analyte
cyCD19 ECD = target: T2, cyCD19 ECD (cynomolgus); assay: binding to CD19 ECD, assay not described
T2 construct: extracellular domain; also called cynomolgus CD19

Binder | Kd [1] [nM] | koff [1] [s⁻¹] | kon [1] [M⁻¹ s⁻¹] | koff [2] [s⁻¹] | EC50 (cyCD19 ECD) [µg/mL]
anti-CD19 clone 8B8 (parental) in P329GLALA human IgG1 format (antibody, V domains shown, also called Parental 8B8) VH: EVQLQQSGPELVKPGASVKMACKASGYTFTDYIMHWVKQKTGQGLEWIGYINPYNDGSKYTEKFNGKATLTSDKSSITAYMELSSLTSEDSAVYYCARGTYYYGSALFDYWGQGTTLTVSS VL: DAVMTQTPLSLPVSLGDQASISCRSSQSLENSNGNTYLNWYLQKPGQSPQLLIYRVSKRFSGVLDRFSGSGSGTDFTLKISRVEAEDLGVYFCLQLTHVPYTFGGGTKLEIKR | 2.36 | 0.000134 | 56600 | – | –
anti-CD19 clone 8B8-5D08 in P329GLALA human IgG1 format (antibody, V domains shown) VH: QVQLVQSGAEVKKPGASVKVSCKASGYTFTDYIMHWVRQAPGQGLEWMGYINPYNDGSKYTEKFQGRVTMTSDTSISTAYMELSRLRSDDTAVYYCARGTYYYGSELFDYWGQGTTVTVSS VL: DIVMTQTPLSLSVTPGQPASISCKSSQSLETSTGNTYLNWYLQKPGQSPQLLIYRVSKRFSGVPDRFSGSGSGTDFTLKISRVEAEDVGVYYCLQLTHEPYTFGQGTKLEIKR | 0.951 | 8.44e-05 | 88800 | – | –
parental anti-CD19 clone 8B8, Fab in bacterial supernatant (Fab, V domains shown, conflicting; also called Parental 8B8; parental humanized clone 8B8) VH: QVQLVQSGAEVKKPGASVKVSCKASGYTFTDYIMHWVRQAPGQGLEWMGYINPYNDGSKYTEKFQGRVTMTSDTSISTAYMELSRLRSDDTAVYYCARGTYYYGSALFDYWGQGTTVTVSS VL: DIVMTQTPLSLSVTPGQPASISCKSSQSLENPNGNTYLNWYLQKPGQSPQLLIYRVSKRFSGVPDRFSGSGSGTDFTLKISRVEAEDVGVYYCLQLTHVPYTFGQGTKLEIK | – | – | – | 0.000301 | –
wild-type humanized anti-human CD19 antibody (var.0) (antibody, V domains shown, humanized 8B8; also called variant 0; wt) VH: QVQLVQSGAEVKKPGASVKVSCKASGYTFTDYIMHWVRQAPGQGLEWMGYINPYNDGSKYTEKFNGKATMTSDTSISTAYMELSRLRSDDTAVYYCARGTYYYGSALFDYWGQGTTVTVSS VL: DIVMTQTPLSLSVTPGQPASISCKSSQSLENSNGNTYLNWYLQKPGQSPQLLIYRVSKRFSGVPDRFSGSGSGTDFTLKISRVEAEDVGVYYCLQLTHVPYTFGQGTKLEIK | – | – | – | – | 0.313
anti-CD19 clone 8B8-7H07 in P329GLALA human IgG1 format (antibody, V domains shown) VH: QVQLVQSGAEVKKPGASVKVSCKASGYTFTDYIMHWVRQAPGQGLEWMGYINPYNDGSKYTEKFQGRVTMTSDTSISTAYMELSRLRSDDTAVYYCARGTYYYGSELFDYWGQGTTVTVSS VL: DIVMTQTPLSLSVTPGQPASISCKSSQSLETSTGNTYLNWYLQKPGQSPQLLIYRVSKRFSGVPDRFSGSGSGTDFTLKISRVEAEDVGVYYCLQATHIPYTFGQGTKLEIKR | 0.747 | 5.57e-05 | 74500 | – | –
anti-CD19 clone 8B8-5A07 in P329GLALA human IgG1 format (antibody, V domains shown) VH: QVQLVQSGAEVKKPGASVKVSCKASGYTFTDYIMHWVRQAPGQGLEWMGYINPYNDGSKYTEKFQGRVTMTSDTSISTAYMELSRLRSDDTAVYYCARGTYYYGSALFDYWGQGTTVTVSS VL: DIVMTQTPLSLSVTPGQPASISCKSSQSLETSTGNTYLNWYLQKPGQSPQLLIYRVSKRFSGVPDRFSGSGSGTDFTLKISRVEAEDVGVYYCLQPGHYPGTFGQGTKLEIKR | 0.44 | 3.07e-05 | 69800 | – | –
anti-CD19 clone 8B8-5H09, Fab in bacterial supernatant (Fab, V domains shown) VH: QVQLVQSGAEVKKPGASVKVSCKASGYTFTDYIMHWVRQAPGQGLEWMGYINPYNDGSKYTEKFQGRVTMTSDTSISTAYMELSRLRSDDTAVYYCARGTYYYGSALFDYWGQGTTVTVSS VL: DIVMTQTPLSLSVTPGQPASISCKSSQSLESSTGNTYLNWYLQKPGQSPQLLIYRVSKRFSGVPDRFSGSGSGTDFTLKISRVEAEDVGVYYCLQLIDYPVTFGQGTKLEIK | – | – | – | 0.000258 | –
anti-CD19 clone 8B8-2B11, Fab in bacterial supernatant (Fab, V domains shown) VH: QVQLVQSGAEVKKPGASVKVSCKASGYTFTDYIMHWVRQAPGQGLEWMGYINPYNDGSKYTEKFQGRVTMTSDTSISTAYMELSRLRSDDTAVYYCARGTYYYGPQLFDYWGQGTTVTVSS VL: DIVMTQTPLSLSVTPGQPASISCKSSQSLETSTGTTYLNWYLQKPGQSPQLLIYRVSKRFSGVPDRFSGSGSGTDFTLKISRVEAEDVGVYYCLQLLEDPYTFGQGTKLEIK | – | – | – | 4.37e-06 | –
anti-CD19 clone 8B8-5H09 in P329GLALA human IgG1 format (antibody, V domains shown) VH: QVQLVQSGAEVKKPGASVKVSCKASGYTFTDYIMHWVRQAPGQGLEWMGYINPYNDGSKYTEKFQGRVTMTSDTSISTAYMELSRLRSDDTAVYYCARGTYYYGSALFDYWGQGTTVTVSS VL: DIVMTQTPLSLSVTPGQPASISCKSSQSLESSTGNTYLNWYLQKPGQSPQLLIYRVSKRFSGVPDRFSGSGSGTDFTLKISRVEAEDVGVYYCLQLIDYPVTFGQGTKLEIKR | 0.189 | 1.5e-05 | 79100 | – | –
anti-CD19 clone 8B8-2B03 in P329GLALA human IgG1 format (antibody, V domains shown, light chain holds an X) VH: QVQLVQSGAEVKKPGASVKVSCKASGYTFTDYITHWVRQAPGQGLEWMGYINPYNDGSKYTEKFQGRVTMTSDTSISTAYMELSRLRSDDTAVYYCARGTYYYGPDLFDYWGQGTTVTVSS VL: DIVMTQTPLSLSVTPGQPASISCKSSQSLETSTGNTYLNWYLQKPGQSPQLLIYRVSKRFSGVPDRFSGSGSGTDFTLKISRVEAEDVGVYYCLQLTHVPYTFGQGTKLEIKR | 0.831 | 5e-05 | 60200 | – | –
anti-CD19 clone 8B8-5B08 in P329GLALA human IgG1 format (antibody, V domains shown) VH: QVQLVQSGAEVKKPGASVKVSCKASGYTFTDYIMHWVRQAPGQGLEWMGYINPYNDGSKYTEKFQGRVTMTSDTSISTAYMELSRLRSDDTAVYYCARGTYYYGPQLFDYWGQGTTVTVSS VL: DIVMTQTPLSLSVTPGQPASISCKSSQSLETSTGNTYLNWYLQKPGQSPQLLIYRVSKRFSGVPDRFSGSGSGTDFTLKISRVEAEDVGVYYCLQLDSYPNTFGQGTKLEIKR | 0.772 | 5.26e-05 | 68100 | – | –
anti-CD19 clone 8B8-2B11 in P329GLALA human IgG1 format (antibody, V domains shown) VH: QVQLVQSGAEVKKPGASVKVSCKASGYTFTDYIMHWVRQAPGQGLEWMGYINPYNDGSKYTEKFQGRVTMTSDTSISTAYMELSRLRSDDTAVYYCARGTYYYGPQLFDYWGQGTTVTVSS VL: DIVMTQTPLSLSVTPGQPASISCKSSQSLETSTGTTYLNWYLQKPGQSPQLLIYRVSKRFSGVPDRFSGSGSGTDFTLKISRVEAEDVGVYYCLQLLEDPYTFGQGTKLEIKR | 0.495 | 3.14e-05 | 63400 | – | –
anti-CD19 clone 8B8-2B03, Fab in bacterial supernatant (Fab, V domains shown, printed VL holds an X) VH: QVQLVQSGAEVKKPGASVKVSCKASGYTFTDYITHWVRQAPGQGLEWMGYINPYNDGSKYTEKFQGRVTMTSDTSISTAYMELSRLRSDDTAVYYCARGTYYYGPDLFDYWGQGTTVTVSS VL: DIVMTQTPLSLSVTPGQPASISCKSSQSLETSTGNTYLNWYLQKPGQSPQLLIYRVSKRFSGVPDRFSGSGSGTDFTLKISRVEAEDVGVYYCLQLTHVPYTFGQGTKLEIK | – | – | – | 3.24e-05 | –
anti-CD19 clone 8B8-5D08, Fab in bacterial supernatant (Fab, V domains shown) VH: QVQLVQSGAEVKKPGASVKVSCKASGYTFTDYIMHWVRQAPGQGLEWMGYINPYNDGSKYTEKFQGRVTMTSDTSISTAYMELSRLRSDDTAVYYCARGTYYYGSELFDYWGQGTTVTVSS VL: DIVMTQTPLSLSVTPGQPASISCKSSQSLETSTGNTYLNWYLQKPGQSPQLLIYRVSKRFSGVPDRFSGSGSGTDFTLKISRVEAEDVGVYYCLQLTHEPYTFGQGTKLEIK | – | – | – | 0.000195 | –
anti-CD19 clone 8B8-7H07, Fab in bacterial supernatant (Fab, V domains shown) VH: QVQLVQSGAEVKKPGASVKVSCKASGYTFTDYIMHWVRQAPGQGLEWMGYINPYNDGSKYTEKFQGRVTMTSDTSISTAYMELSRLRSDDTAVYYCARGTYYYGSELFDYWGQGTTVTVSS VL: DIVMTQTPLSLSVTPGQPASISCKSSQSLETSTGNTYLNWYLQKPGQSPQLLIYRVSKRFSGVPDRFSGSGSGTDFTLKISRVEAEDVGVYYCLQATHIPYTFGQGTKLEIK | – | – | – | 5.75e-05 | –
